Experimental findings from US20120045773A1, “CELL ADHESION INHIBITOR AND APPLICATIONS THEREOF” (University of Miyazaki, priority 2009, published 2012) are described below.

Series [1] concerns AML1 cell line. The experiment in a line: Drug resistance assay by WST method with or without osteoblast cell in the medium. The series is classed as cell-based, human. Here is the method:
Effect of the presence of osteoblast cell on the drug resistance of AML1 cell line derived from human acute myelocytic leukemia (AML) was examined.
Specifically, by WST method, in which water-soluble formazan was produced, viability of AML1 cell line was evaluated under the presence of VP16 (5 μM), a kind of etoposide-based anticancer drug, between the cases of presence and absence of osteoblast cell in culture medium. It should be noted that AML1 cell line is fixed to medium plate through osteoblast cell when the osteoblast cell exists in the medium.
In addition, effect of the presence of the osteoblast cell on the drug resistance of AML1 cell line was examined, when Ara-C, a kind of anticancer drug of […] was used in place of VP16 as the anticancer drug. Specifically, the drug resistance assay was carried out by WST method using the same procedures as the above-mentioned method excepting that Ara-C (1 μg/mL) was used in place of VP16 as the anticancer drug.
Drug resistance assay by WST method was carried out by the same procedures as the above-mentioned Reference Example 5 (in the presence of Ara-C) using each of the above-established AML1 (shEVI1) cell and AML1 (shLuc) cell in place of AML1 cell line.

The subject of series [2] is EVI1 gene. The experiment in a line: EVI1 gene expression by PCR in HNT34 cell line transfected with shEVI1. Format: cell-based, human. The conditions noted are these: HNT34(shEVI1) vs HNT34(shLuc); transfection with Nucleofector; FIG. 5. An excerpt:
(§1) EVI1 expression-inhibited HNT34 cell line (hereinafter, also called “HNT34(shEVI1)”) was established by the transfection of shEVI1, which was used in the above-mentioned Example 1-1, using Nucleofector (produced by Amaxa Biosystems), a gene transfection system, into HNT34 cell line derived from human. In the same way, the cell line transfected with shLuc (hereinafter, also called “HNT34 (shLuc)”) was established. For these cell lines, expression of EVI1 gene and genes of various integrin families were confirmed by the same method as in the Example 1.

Series [3] deals with various integrin families including ITGA6 gene and ITGB4 gene. The experiment in a line: Expression of integrin family and VE cadherin genes by PCR and agarose gel electrophoresis in AML1 cells transduced with shEVI1. Format: cell-based, human. An excerpt:
(§2) EVI1 expression-inhibited AML1 cell line (hereinafter, also called “AML1 (shEVI1)”) was established by the transfection of shEVI1, which is a short hairpin RNA (shRNA) having cleavage activity of mRNA of EVI1 gene, into the AML1 cell line, which was originated from human acute myelocytic leukemia (AML).
Specifically, at first, shEVI1 (sense strand: […] UUG (SEQ ID No: 7) and antisense strand: […] GAGA (SEQ ID No: 8), which had been disclosed in Oncogene, 2006 Jun. 15; 25 (25): 3565-75), were inserted into pSIREN-RetroQ-ZsGreen vector of RNAi-Ready pSIREN-RetroQ-ZsGreen (produced by Clonetech Laboratories, Inc.) at BamH1-EcoR1 site to prepare a shEVI1 retrovector. After that, 10 μg of the shEVI1 retrovector and 10 μg of p10A1 packaging vector (produced by Clonetech Laboratories, Inc.) were transduced to 293T cell using Hylimax liposome reagent (produced by DOJINDO Laboratories) to prepare a retrovirus containing shEVI1. After that, AML1 (shEVI1) was established by infecting the obtained retrovirus into 10^5 of AML1 cells. It should be noted that as a control cell, the cell (hereinafter, also called “AML1 (shLuc)”) was established by transfecting a control vector (shLuc) attached to RNAi-Ready pSIREN-RetroQ-ZsGreen (produced by Clonetech Laboratories, Inc.) by the same method.
Each cell cultured steadily of the established above mentioned AML1(shEVI1) and AML1(shLuc) was recovered by centrifugation, the medium was removed, and 1 ml of Trizol™ (produced by Invitrogen Corp.) was added. After that, 500 μL of chloroform was added, separated by centrifugation at 15000 rpm for 15 minutes, the upper layer was transferred to another tube, 500 μL of 2-propanol was added, separated by centrifugation at 15000 rpm for 10 minutes, and washed with 80% ethanol. The resultant RNA was dissolved in RNase-free water, the amount of RNA was measured by spectrophotometer at wavelength of 260 nm, and 1 μg of the RNA was transformed to cDNA with reverse transcriptase (superscript 3, produced by Invitrogen Corp.).
Using each of the resultant cDNA as a template, the cDNA was amplified by PCR method, and expression level of the genes was confirmed by agarose gel electrophoresis. Specifically, TaKaRa Extaq (produced by TaKaRaBio Inc.) was used as the polymerase, and PCR Thermal Cycler DICE (produced by TaKaRa Bio Inc.) was used as the PCR equipment. In addition, each cDNA was corrected by β-actin before the amplification by PCR. Base sequences of the primers used in the PCR were as follows;
The ones disclosed in Journal of Biomedical Science (2005)12:803-813.

For series [4], the system named is genes of various integrin families. The experiment in a line: Expression of integrin family genes by PCR in HNT34 cell line transfected with shEVI1. The series is classed as cell-based, human. As to conditions: HNT34(shEVI1) vs HNT34(shLuc); transfection with Nucleofector; FIG. 5.
Source text: as §1

Series [5] deals with HNT34 cell line. The experiment in a line: Cellular proliferative ability assay of HNT34 cell line (Cell counting kit 8). The series is classed as cell-based, human. As to conditions: HNT34(shEVI1) vs HNT34(shLuc) control cell line; FIG. 7. Here is the method: Cellular proliferative ability was evaluated for the above-mentioned established HNT34(shEVI1) and HNT34(shLuc).
Specifically, cells diluted with RPMI1640/10% FCS were added to each well of a 96-well plate at 1000 cells/100 μL. After that, the cell suspension was incubated at 37° C. for an appropriate time, each 10 μL of Cell counting kit 8 (produced by DOJINDO Laboratories) was added, incubated at 37° C. for 30 minutes, and measurement was carried out at wavelength of 450 nm using a spectrophotometer.

For series [6], the system named is EVI1 gene. Put plainly: EVI1 gene expression by PCR and agarose gel electrophoresis in AML1 cells transduced with shEVI1. The series is classed as cell-based, human.
Source text: as §2
Specifically, at first, shEVI1 (sense strand: […] UUG (SEQ ID No: 7) and antisense strand: […] GAGA (SEQ ID No: 8), which had been disclosed in Oncogene, 2006 Jun. 15; 25 (25): 3565-75), were inserted into pSIREN-RetroQ-ZsGreen vector of RNAi-Ready pSIREN-RetroQ-ZsGreen (produced by Clonetech Laboratories, Inc.) at BamH1-EcoR1 site to prepare a shEVI1 retrovector. […] It should be noted that as a control cell, the cell (hereinafter, also called “AML1 (shLuc)”) was established by transfecting a control vector (shLuc) attached to RNAi-Ready pSIREN-RetroQ-ZsGreen (produced by Clonetech Laboratories, Inc.) by the same method.
Each cell cultured steadily of the established above mentioned AML1(shEVI1) and AML1(shLuc) was recovered by centrifugation, the medium was removed, and 1 ml of Trizol™ (produced by Invitrogen Corp.) was added. […] The resultant RNA was dissolved in RNase-free water, the amount of RNA was measured by spectrophotometer at wavelength of 260 nm, and 1 μg of the RNA was transformed to cDNA with reverse transcriptase (superscript 3, produced by Invitrogen Corp.). […]

Series [7] concerns HNT34 cell line. Put plainly: Cellular adhesiveness assay of HNT34 cell line. The series is classed as cell-based, human. As to conditions: HNT34(shEVI1) compared with HNT34(shLuc); FIG. 6. Here is the method: (§3) Specifically, 100 μL of 40 times-diluted growth factor reduced matrigel (produced by BD Biosciences) with RPMI1640/10% FCS was added to each well of a 96-well plate, incubated at 4° C. for 6 hours, and washed twice with PBS. The above-mentioned cell was added to each of the wells at 10000 cells/100 μL. After that, the cell was incubated at 37° C. for 2 hours and washed three times with PBS. After that, 90 μL of RPMI1640/10% FCS and 10 μL of Cell counting kit 8 (produced by DOJINDO Laboratories) were added to each well, incubated at 37° C. for 30 minutes and measured at wavelength of 450 nm by a spectrophotometer.
The cellular adhesiveness was evaluated for the above-mentioned established HNT34(shEVI1) and HNT34(shLuc) by the same method as the above-mentioned Example 1-2.

Series [8] deals with AML1 cell. Put plainly: Accumulation of AML1 cells in thighbone bone marrow of transplanted NOG mouse (FACS). As to conditions: 6 million AML1(shEVI1) cells injected into NOG mouse, bone marrow recovered 1 month after, control AML1(shLuc) printed as (330), FIG. 25. The series is classed as in vivo. Here is the method:
The above-established AML1(shEVI1) cell was transplanted into NOG Mouse™, and accumulation of the AML1(shEVI1) cell into the murine thighbone was examined after the transplantation. Here, NOG mouse is a severe immunodeficient mouse suitable for the preparation of humanized model mouse that is available from the Central Institute for Experimental Animals.
Specifically, 6 million of each of the AML1 (shLuc) cell and the AML1 (shEVI1) cell was injected into NOG mouse through venous artery, and bone marrow of the thighbone was recovered 1 month after. After that, a graph representing the fluorescence intensity in the horizontal axis was prepared by FACS, and analysis was made how frequently cells were distributed from low intensity (peak near to 0) to high fluorescence intensity.

The subject of series [9] is AML1 cell line. Put plainly: Cellular adhesiveness assay of AML1 cell line on matrigel-coated 96-well plate (Cell counting kit 8). Format: cell-based, human. The conditions noted are these: AML1(shITGB4) relative to AML1(shLuc); FIG. 8. Here is the method:
Cellular adhesiveness was evaluated for the above-established AML1(shEVI1) (triplicate) and AML1(shLuc).
as §3
Cellular adhesiveness was evaluated for the established above-mentioned AML1(shITGB4) and AML1(shLuc) by the same method as the above-mentioned Example 1-2.

The test system of series [10] is ITGB4 gene. Put plainly: ITGB4 gene expression by PCR in AML1 cell line transfected with shITGB4. As to conditions: AML1(shITGB4) compared with AML1(shLuc); FIG. 9. Format: cell-based, human. An excerpt:
ITGB4 expression-inhibited AML1 cell line (hereinafter also called “AML1(shITGB4)”) was established by the transfection of shRNA having an activity of cleaving mRNA of ITGB4 gene (hereinafter also called “shITGB4”) into AML1 cell line by the same method as the above-mentioned Example 2-1. It should be noted that the base sequences of the used shITGB4 were as follows.
Further, expression of ITGB4 gene in AML1 (shITGB4) was confirmed by the same method as the above-mentioned Example 1-1. As a result, as shown in the results of PCR agarose gel electrophoresis in FIG. 9, expression of ITGB4 gene was suppressed in AML1(shITGB4) compared with AML1(shLuc).

The mark [11] stands for this setting: AML1(shEVI1) compared with AML1(shLuc), FIG. 1.
Where [12] appears, read: triplicated experiment for AML1(shEVI1), AML1 cell not administered with shLuc or shEVI1 added as a control, FIG. 2.

With `Nc1ccn([C@@H]2O[C@H](CO)[C@@H](O)[C@@H]2O)c(=O)n1` [Ara-C], the “viability of AML1 cell line in the presence of the drug, osteoblast cell in the medium compared with none” value in series [1] (Ara-C (1 μg/mL), FIG. 19) is listed as “increase significantly”.
Regarding `COc1cc([C@@H]2c3cc4c(cc3[C@@H](O[C@@H]3O[C@@H]5CO[C@@H](C)O[C@H]5[C@H](O)[C@H]3O)[C@H]3COC(=O)[C@H]23)OCO4)cc(OC)c1O` [VP16], the “viability of AML1 cell line in the presence of the drug, osteoblast cell in the medium compared with none” value in series [1] (VP16 (5 μM), FIG. 18) was “increase significantly”.

B1: shEVI1: short hairpin RNA (shRNA) having cleavage activity of mRNA of EVI1 gene; SEQ ID No: 7 and SEQ ID No: 8 (nucleic acid)
chain 1: GAUCUCUCUAAGGCUGAACUAGCAGUUCAAGAGACUGCUAGUUCAGCCUUAGAUUUUUUG
chain 2: AAUUCAAAAAAUCUAAGGCUGAACUAGCAGUCUCUUGAACUGCUAGUUCAGCCUUAGAGA
For the molecule B1, the “expression of the EVI1 gene” value in series [2] was “inhibited”. Further, in [3] (setting [11]), the “expression of VE cadoherin gene” value was “inhibited”; the “gene expressions of various integrin families including ITGA6 gene and ITGB4 gene” value is reported as “inhibition”. In series [3] (setting [12]), the “expression of VE cadherin genes” value is given as “inhibition” and the “expression of various integrin families” value was “inhibition”. In addition, the “expression of genes of various integrin families” value in [4] is recorded as “inhibited”. Further, the cellular proliferation ability entry in series [5] is on record as “no significant difference”. Besides, the “drug resistance to Ara-C gained by the existence of osteoblast” value in series [1] (AML1(shEVI1) vs AML1(shLuc), in the presence of Ara-C, FIG. 20) is on record as “disappeared”. Further, the EVI1 gene expression result in [6] (setting [11]) is listed as “inhibited”. Moreover, the EVI1 gene expression entry in series [6] (setting [12]) was “inhibition”. Moreover, the “decrease of cellular adhesiveness (ratio of the number of adhered cells to the number of total cells)” value in series [7] is recorded as “about 76%”. In addition, the “abundance rate of transplanted cells in bone marrow of the thighbone” value in series [8] was 9.5%.

B2: shITGB4: shRNA having an activity of cleaving mRNA of ITGB4 gene; SEQ ID No: 13 and SEQ ID No: 14 (nucleic acid)
chain 1: GAUCUCCGAGUUGCGUGGGGUGUGUCUUCAAGAGAGACACACUCCGUGCAGCUCUUUUUG
chain 2: AAUUCAAAAAGAGCUGCACGGAGUGUGUCUCUCUUGAAGACACACCCCACGCAACUCGGA
For B2, the “cellular adhesiveness (ratio of the number of adhered cells to the number of total cells)” value in series [9] is reported as “decrease nearly to zero”. Besides, the “expression of ITGB4 gene” value in [10] is recorded as “suppressed”.
